Laboratory results reported in article doi:10.1101/2023.09.21.558797.

Target: His-tagged mouse Endophilin A1 SH3 domain (mouse) (UniProt Q62420)
Assay: ELISA; His-tagged mouse Endophilin A1 SH3 domain coated on a 96-well plate, overlaid with increasing concentrations of GST-tagged Dyn1-PRR peptides; two experiments of four replicates

Sequence of His-tagged mouse Endophilin A1 SH3 domain (mouse) (Q62420 290-349): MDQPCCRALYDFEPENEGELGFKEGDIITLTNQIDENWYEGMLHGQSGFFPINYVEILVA

fold lower affinity than xA (746–864): 3 fold
Substance: GST-Dyn1xB-PRR (full-length proline-rich region of Dynamin 1 splice variant xB, 746-851) (domain or fragment)
